In patent US20140221287A1 (AstraZeneca / MedImmune, published 2014):
No end group written: not given here.

T1: human amylin receptor 3 (AMY3) (human, UniProt P30988 25-474; O60896 24-148)
T1 sequence (looked up) 1: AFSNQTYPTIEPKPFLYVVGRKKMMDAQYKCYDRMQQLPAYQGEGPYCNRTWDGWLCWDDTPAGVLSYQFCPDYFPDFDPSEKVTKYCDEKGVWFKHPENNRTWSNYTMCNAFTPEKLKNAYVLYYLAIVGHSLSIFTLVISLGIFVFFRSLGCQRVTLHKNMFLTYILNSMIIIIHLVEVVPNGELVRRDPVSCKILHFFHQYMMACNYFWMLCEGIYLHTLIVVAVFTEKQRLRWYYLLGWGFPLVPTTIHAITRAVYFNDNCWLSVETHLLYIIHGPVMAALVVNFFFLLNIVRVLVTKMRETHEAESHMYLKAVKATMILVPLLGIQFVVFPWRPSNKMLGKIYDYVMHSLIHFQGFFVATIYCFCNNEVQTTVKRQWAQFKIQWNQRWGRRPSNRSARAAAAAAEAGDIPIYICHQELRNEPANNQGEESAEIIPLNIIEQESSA
T1 sequence (looked up) 2: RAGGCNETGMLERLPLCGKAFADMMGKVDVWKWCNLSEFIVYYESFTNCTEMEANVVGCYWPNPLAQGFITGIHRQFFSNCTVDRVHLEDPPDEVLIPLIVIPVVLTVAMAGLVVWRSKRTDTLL


How the values were obtained:
[1] = target: T1, human amylin receptor 3 (AMY3); assay: cell-based or functional assay
[2] = target: T2, amylin receptor in membranes prepared from the nucleus accumbens portion of the brain (rat) (rat); assay: displacement of 125I-rat amylin from rat nucleus accumbens membranes
T2 construct: whole, on cells; Native tissue membranes
Description: Plate was incubated for 1 hour at room temperature on a shaker. Plate was dried for 1.5 hours at 50° C., then overnight at room temperature.
Receptor binding activity can be expressed, for example in Table 3, as an IC₅₀ value, calculated from the raw data using an iterative curve-fitting program using a 4-parameter logistic equation (PRISM®, GraphPAD Software, La Jolla, Calif.), as known in the art.

[3] = target: T1, human amylin receptor 3 (AMY3); assay: displacement of 125I-rat amylin from crude membranes of HEK293 cells expressing human AMY3 (hCalcR + RAMP3)
Description: The crude membranes were incubated with 20 pM ¹²⁵I. (Perkin Elmer Cat#NEX4480) (2000 Ci/mmol) and increasing concentration of test peptide. […] The Unifilter® plates were washed several times using ice cold PBS using a MicroMate 96 Cell Harvester (Perkin Elmer).
The potency (IC₅₀) of test peptide was determined by the analysis of a concentration-response curve using non-linear regression analysis fitted to a 4-parameter curve. Binding affinities were calculated using GraphPad Prism® software (GraphPad Software, Inc., San Diego, Calif.).

EC50 (nM), cAMP accumulation (HTRF) [1] | IC50 [2] | IC50 [3] | Binder
0.114 nM | 39 nM | 60 nM | CNTATCATQRLANFLVHSSNNFGPK(mPEG40KD)LPPTNVGSNTY-NH2 (ends and bridges not checked, also called Compound 29) [Cmpd 29, [K^26(mPEG40KD)]-Cmpd 12]
0.034 nM |  | 77 nM | CNTATCATQRLANFLVHSSNNFGPILPPTNVGK(mPEG40KD)NTY-NH2 (ends and bridges not checked, also called Compound 41) [Cmpd 41, [K^34(mPEG40KD)]-Cmpd 38]
0.296 nM | 51 nM | 87 nM | CNTATCATQRLANFLVHSSNNFGPIK(mPEG40KD)PPTNVGSNTY-NH2 (ends and bridges not checked, also called Compound 34) [Cmpd 34, [K^27(mPEG40KD)]-Cmpd 16]
0.126 nM | 31 nM | 48 nM | CNTATCATQRLANFLVHSSNNFGK(mPEG40KD)ILPPTNVGSNTY-NH2 (ends and bridges not checked, also called Compound 33) [Cmpd 33, [K^25(mPEG40KD)]-Cmpd 15]
0.598 nM | 79 nM | 111 nM | CNTATCATQRLANFLVHSSNNFK(mPEG40KD)PILPPTNVGSNTY-NH2 (ends and bridges not checked, also called Compound 32) [Cmpd 32, [K^24(mPEG40KD)]-Cmpd 14]
0.295 nM | 53 nM | 46 nM | CNTATCATQRLANFLVHSSNNFGPILK(mPEG40KD)PTNVGSNTY-NH2 (ends and bridges not checked, also called Compound 35) [Cmpd 35, [K^28(mPEG40KD)]-Cmpd 17]
0.122 nM |  | 143 nM | CNTATCATQRLANFLVHSSNNFGPILPPTNVGSK(mPEG40KD)TY-NH2 (ends and bridges not checked, also called Compound 42) [Cmpd 42, [K^35(mPEG40KD)]-Cmpd 39]
0.145 nM | 61 nM | 80 nM | CNTATCATQRLANFLVHSSNNFGPILPPTK(mPEG40KD)VGSNTY-NH2 (ends and bridges not checked, also called Compound 30) [Cmpd 30, [K^31(mPEG40KD)]-Cmpd 13]
0.85 nM |  | 238 nM | CNTATCATQRLANFLVK(mPEG40KD)SSNNFGPILPPTNVGSNTY-NH2 (ends and bridges not checked, also called Compound 40) [Cmpd 40, [K^18(mPEG40KD)]-Cmpd 37]
2.58 nM | 131 nM | 388 nM | CNTATCATQRLANFLVHSSK(mPEG40KD)NFGPILPPTNVGSNTY-NH2 (ends and bridges not checked, also called Compound 28) [Cmpd 28, [K^21(mPEG40KD)]-Cmpd 11]
0.159 nM | 27 nM | 47 nM | CNTATCATQRLANFLVHSSNNFGPILPK(mPEG40KD)TNVGSNTY-NH2 (ends and bridges not checked, also called Compound 36) [Cmpd 36, [K^29(mPEG40KD)]-Cmpd 18]
2.56 nM | 132 nM | 1130 nM | CNTATCATQRLANFLVHSSNNFGPK(Y‑shaped‑mPEG40KD)LPPTNVGSNTY-NH2 (ends and bridges not checked, also called Compound 31) [Cmpd 31, [K^26(Y-shaped-mPEG40KD)]-Cmpd 12]
 | 0.1 nM |  | KCNTATCATQRLANFLVRSSNNLGPVLPPTNVGSNTY-NH2 (ends and bridges not checked, also called Compound 1) [Cmpd 1]
